Measurements reported in patent US20150344570A1 (published 2015).

T1: FcγRIIb extracellular domain with C-terminal His tag (human, UniProt P31994 43-217)
T1 construct: extracellular domain; Expressed in FreeStyle293 cells; analyte in the SPR assay; also called FcgRIIb; 2b
T1 sequence (looked up): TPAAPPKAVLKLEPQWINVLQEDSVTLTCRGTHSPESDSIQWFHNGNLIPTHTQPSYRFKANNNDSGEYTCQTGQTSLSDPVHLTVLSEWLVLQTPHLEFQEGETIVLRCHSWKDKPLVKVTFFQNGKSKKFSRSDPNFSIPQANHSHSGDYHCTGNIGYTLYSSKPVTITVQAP


Assays:
[1] = target: T1, FcγRIIb extracellular domain with …; experiment: SPR (Biacore), relative binding, HeCon Ab = 100
[2] = target: T2, FcγRIa extracellular domain with C-terminal His tag (human, UniProt P12314 16-292); experiment: SPR (Biacore), relative binding, HeCon Ab = 100
T2 construct: extracellular domain; Expressed in FreeStyle293 cells; analyte in the SPR assay; also called FcgRI; 1a
T2 sequence (P12314 16-292): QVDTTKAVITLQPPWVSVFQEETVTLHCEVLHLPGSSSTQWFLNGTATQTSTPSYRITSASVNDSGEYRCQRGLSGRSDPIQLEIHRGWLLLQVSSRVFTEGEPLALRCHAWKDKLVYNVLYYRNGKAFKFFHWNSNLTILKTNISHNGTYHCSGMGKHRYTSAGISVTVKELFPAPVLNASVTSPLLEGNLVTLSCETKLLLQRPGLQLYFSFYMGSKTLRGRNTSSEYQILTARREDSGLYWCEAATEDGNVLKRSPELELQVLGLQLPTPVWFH

Binder	He/Con_2b [1]	He/Con_1a [2]
GpH7-A5/GpH7-B3 variant P271_14T/GpL16-k0 (He Ab) (antibody, human IgG1, kappa, He Ab: mutation in one H chain only) heavy 1: not shown heavy 2: not shown light: DIVMTQSPLSLPVTPGEPASISCQASESLVHSNRNTYLHWYLQKPGQSPQLLIYKVSNRFSGVPDRFSGSGSGTDFTLKISRVEAEDVGVYYCSQNTHVPPTFGQGTKVEIERTVAAPSVFIFPPSDEQLKSGTASVVCLLNNFYPREAKVQWKVDNALQSGNSQESVTEQDSKDSTYSLSSTLTLSKADYEKHKVYACEVTHQGLSSPVTKSFNRGEC	95.4 % of HeCon Ab (=100)	102 % of HeCon Ab (=100)
GpH7-A5/GpH7-B3 variant P271_18N/GpL16-k0 (He Ab) (antibody, human IgG1, kappa, He Ab: mutation in one H chain only) heavy 1: not shown heavy 2: not shown light: DIVMTQSPLSLPVTPGEPASISCQASESLVHSNRNTYLHWYLQKPGQSPQLLIYKVSNRFSGVPDRFSGSGSGTDFTLKISRVEAEDVGVYYCSQNTHVPPTFGQGTKVEIERTVAAPSVFIFPPSDEQLKSGTASVVCLLNNFYPREAKVQWKVDNALQSGNSQESVTEQDSKDSTYSLSSTLTLSKADYEKHKVYACEVTHQGLSSPVTKSFNRGEC	93.3 % of HeCon Ab (=100)	103 % of HeCon Ab (=100)
GpH7-A5/GpH7-B3 variant P271_20W/GpL16-k0 (He Ab) (antibody, human IgG1, kappa, He Ab: mutation in one H chain only) heavy 1: not shown heavy 2: not shown light: DIVMTQSPLSLPVTPGEPASISCQASESLVHSNRNTYLHWYLQKPGQSPQLLIYKVSNRFSGVPDRFSGSGSGTDFTLKISRVEAEDVGVYYCSQNTHVPPTFGQGTKVEIERTVAAPSVFIFPPSDEQLKSGTASVVCLLNNFYPREAKVQWKVDNALQSGNSQESVTEQDSKDSTYSLSSTLTLSKADYEKHKVYACEVTHQGLSSPVTKSFNRGEC	58.1 % of HeCon Ab (=100)	103 % of HeCon Ab (=100)
GpH7-A5/GpH7-B3 variant P271_19Q/GpL16-k0 (He Ab) (antibody, human IgG1, kappa, He Ab: mutation in one H chain only) heavy 1: not shown heavy 2: not shown light: DIVMTQSPLSLPVTPGEPASISCQASESLVHSNRNTYLHWYLQKPGQSPQLLIYKVSNRFSGVPDRFSGSGSGTDFTLKISRVEAEDVGVYYCSQNTHVPPTFGQGTKVEIERTVAAPSVFIFPPSDEQLKSGTASVVCLLNNFYPREAKVQWKVDNALQSGNSQESVTEQDSKDSTYSLSSTLTLSKADYEKHKVYACEVTHQGLSSPVTKSFNRGEC	88.6 % of HeCon Ab (=100)	103 % of HeCon Ab (=100)
GpH7-A5/GpH7-B3 variant Q295_04F/GpL16-k0 (He Ab) (antibody, human IgG1, kappa, He Ab: mutation in one H chain only) heavy 1: not shown heavy 2: not shown light: DIVMTQSPLSLPVTPGEPASISCQASESLVHSNRNTYLHWYLQKPGQSPQLLIYKVSNRFSGVPDRFSGSGSGTDFTLKISRVEAEDVGVYYCSQNTHVPPTFGQGTKVEIERTVAAPSVFIFPPSDEQLKSGTASVVCLLNNFYPREAKVQWKVDNALQSGNSQESVTEQDSKDSTYSLSSTLTLSKADYEKHKVYACEVTHQGLSSPVTKSFNRGEC	64.7 % of HeCon Ab (=100)	102 % of HeCon Ab (=100)
GpH7-A5/GpH7-B3 variant Q295_02A/GpL16-k0 (He Ab) (antibody, human IgG1, kappa, He Ab: mutation in one H chain only) heavy 1: not shown heavy 2: not shown light: DIVMTQSPLSLPVTPGEPASISCQASESLVHSNRNTYLHWYLQKPGQSPQLLIYKVSNRFSGVPDRFSGSGSGTDFTLKISRVEAEDVGVYYCSQNTHVPPTFGQGTKVEIERTVAAPSVFIFPPSDEQLKSGTASVVCLLNNFYPREAKVQWKVDNALQSGNSQESVTEQDSKDSTYSLSSTLTLSKADYEKHKVYACEVTHQGLSSPVTKSFNRGEC	79.7 % of HeCon Ab (=100)	104 % of HeCon Ab (=100)
GpH7-A5/GpH7-B3 variant P271_16H/GpL16-k0 (He Ab) (antibody, human IgG1, kappa, He Ab: mutation in one H chain only) heavy 1: not shown heavy 2: not shown light: DIVMTQSPLSLPVTPGEPASISCQASESLVHSNRNTYLHWYLQKPGQSPQLLIYKVSNRFSGVPDRFSGSGSGTDFTLKISRVEAEDVGVYYCSQNTHVPPTFGQGTKVEIERTVAAPSVFIFPPSDEQLKSGTASVVCLLNNFYPREAKVQWKVDNALQSGNSQESVTEQDSKDSTYSLSSTLTLSKADYEKHKVYACEVTHQGLSSPVTKSFNRGEC	67.9 % of HeCon Ab (=100)	102 % of HeCon Ab (=100)
GpH7-A5/GpH7-B3 variant Q295_03V/GpL16-k0 (He Ab) (antibody, human IgG1, kappa, He Ab: mutation in one H chain only) heavy 1: not shown heavy 2: not shown light: DIVMTQSPLSLPVTPGEPASISCQASESLVHSNRNTYLHWYLQKPGQSPQLLIYKVSNRFSGVPDRFSGSGSGTDFTLKISRVEAEDVGVYYCSQNTHVPPTFGQGTKVEIERTVAAPSVFIFPPSDEQLKSGTASVVCLLNNFYPREAKVQWKVDNALQSGNSQESVTEQDSKDSTYSLSSTLTLSKADYEKHKVYACEVTHQGLSSPVTKSFNRGEC	75.7 % of HeCon Ab (=100)	104 % of HeCon Ab (=100)
GpH7-A5/GpH7-B3 variant P271_15Y/GpL16-k0 (He Ab) (antibody, human IgG1, kappa, He Ab: mutation in one H chain only) heavy 1: not shown heavy 2: not shown light: DIVMTQSPLSLPVTPGEPASISCQASESLVHSNRNTYLHWYLQKPGQSPQLLIYKVSNRFSGVPDRFSGSGSGTDFTLKISRVEAEDVGVYYCSQNTHVPPTFGQGTKVEIERTVAAPSVFIFPPSDEQLKSGTASVVCLLNNFYPREAKVQWKVDNALQSGNSQESVTEQDSKDSTYSLSSTLTLSKADYEKHKVYACEVTHQGLSSPVTKSFNRGEC	52.3 % of HeCon Ab (=100)	103 % of HeCon Ab (=100)

Further lines, results first:

He/Con_2b [1]	He/Con_1a [2]	Binder
65.9 % of HeCon Ab (=100)	100 % of HeCon Ab (=100)	GpH7-A5/GpH7-B3 variant S267_16H/GpL16-k0 (He Ab) (antibody, human IgG1, kappa, He Ab: mutation in one H chain only) heavy 1: not shown heavy 2: not shown light: DIVMTQSPLSLPVTPGEPASISCQASESLVHSNRNTYLHWYLQKPGQSPQLLIYKVSNRFSGVPDRFSGSGSGTDFTLKISRVEAEDVGVYYCSQNTHVPPTFGQGTKVEIERTVAAPSVFIFPPSDEQLKSGTASVVCLLNNFYPREAKVQWKVDNALQSGNSQESVTEQDSKDSTYSLSSTLTLSKADYEKHKVYACEVTHQGLSSPVTKSFNRGEC
90.4 % of HeCon Ab (=100)	104 % of HeCon Ab (=100)	GpH7-A5/GpH7-B3 variant Q295_06M/GpL16-k0 (He Ab) (antibody, human IgG1, kappa, He Ab: mutation in one H chain only) heavy 1: not shown heavy 2: not shown light: DIVMTQSPLSLPVTPGEPASISCQASESLVHSNRNTYLHWYLQKPGQSPQLLIYKVSNRFSGVPDRFSGSGSGTDFTLKISRVEAEDVGVYYCSQNTHVPPTFGQGTKVEIERTVAAPSVFIFPPSDEQLKSGTASVVCLLNNFYPREAKVQWKVDNALQSGNSQESVTEQDSKDSTYSLSSTLTLSKADYEKHKVYACEVTHQGLSSPVTKSFNRGEC
84.3 % of HeCon Ab (=100)	103 % of HeCon Ab (=100)	GpH7-A5/GpH7-B3 variant Q295_07I/GpL16-k0 (He Ab) (antibody, human IgG1, kappa, He Ab: mutation in one H chain only) heavy 1: not shown heavy 2: not shown light: DIVMTQSPLSLPVTPGEPASISCQASESLVHSNRNTYLHWYLQKPGQSPQLLIYKVSNRFSGVPDRFSGSGSGTDFTLKISRVEAEDVGVYYCSQNTHVPPTFGQGTKVEIERTVAAPSVFIFPPSDEQLKSGTASVVCLLNNFYPREAKVQWKVDNALQSGNSQESVTEQDSKDSTYSLSSTLTLSKADYEKHKVYACEVTHQGLSSPVTKSFNRGEC
86.1 % of HeCon Ab (=100)	101 % of HeCon Ab (=100)	GpH7-A5/GpH7-B3 variant S239_19Q/GpL16-k0 (He Ab) (antibody, human IgG1, kappa, He Ab: mutation in one H chain only) heavy 1: not shown heavy 2: not shown light: DIVMTQSPLSLPVTPGEPASISCQASESLVHSNRNTYLHWYLQKPGQSPQLLIYKVSNRFSGVPDRFSGSGSGTDFTLKISRVEAEDVGVYYCSQNTHVPPTFGQGTKVEIERTVAAPSVFIFPPSDEQLKSGTASVVCLLNNFYPREAKVQWKVDNALQSGNSQESVTEQDSKDSTYSLSSTLTLSKADYEKHKVYACEVTHQGLSSPVTKSFNRGEC
89.2 % of HeCon Ab (=100)	100 % of HeCon Ab (=100)	GpH7-A5/GpH7-B3 variant V266_19Q/GpL16-k0 (He Ab) (antibody, human IgG1, kappa, He Ab: mutation in one H chain only) heavy 1: not shown heavy 2: not shown light: DIVMTQSPLSLPVTPGEPASISCQASESLVHSNRNTYLHWYLQKPGQSPQLLIYKVSNRFSGVPDRFSGSGSGTDFTLKISRVEAEDVGVYYCSQNTHVPPTFGQGTKVEIERTVAAPSVFIFPPSDEQLKSGTASVVCLLNNFYPREAKVQWKVDNALQSGNSQESVTEQDSKDSTYSLSSTLTLSKADYEKHKVYACEVTHQGLSSPVTKSFNRGEC
47.7 % of HeCon Ab (=100)	102 % of HeCon Ab (=100)	GpH7-A5/GpH7-B3 variant S267_18N/GpL16-k0 (He Ab) (antibody, human IgG1, kappa, He Ab: mutation in one H chain only) heavy 1: not shown heavy 2: not shown light: DIVMTQSPLSLPVTPGEPASISCQASESLVHSNRNTYLHWYLQKPGQSPQLLIYKVSNRFSGVPDRFSGSGSGTDFTLKISRVEAEDVGVYYCSQNTHVPPTFGQGTKVEIERTVAAPSVFIFPPSDEQLKSGTASVVCLLNNFYPREAKVQWKVDNALQSGNSQESVTEQDSKDSTYSLSSTLTLSKADYEKHKVYACEVTHQGLSSPVTKSFNRGEC
97.3 % of HeCon Ab (=100)	101 % of HeCon Ab (=100)	GpH7-A5/GpH7-B3 variant S239_14T/GpL16-k0 (He Ab) (antibody, human IgG1, kappa, He Ab: mutation in one H chain only) heavy 1: not shown heavy 2: not shown light: DIVMTQSPLSLPVTPGEPASISCQASESLVHSNRNTYLHWYLQKPGQSPQLLIYKVSNRFSGVPDRFSGSGSGTDFTLKISRVEAEDVGVYYCSQNTHVPPTFGQGTKVEIERTVAAPSVFIFPPSDEQLKSGTASVVCLLNNFYPREAKVQWKVDNALQSGNSQESVTEQDSKDSTYSLSSTLTLSKADYEKHKVYACEVTHQGLSSPVTKSFNRGEC
67.5 % of HeCon Ab (=100)	103 % of HeCon Ab (=100)	GpH7-A5/GpH7-B3 variant Q295_05P/GpL16-k0 (He Ab) (antibody, human IgG1, kappa, He Ab: mutation in one H chain only) heavy 1: not shown heavy 2: not shown light: DIVMTQSPLSLPVTPGEPASISCQASESLVHSNRNTYLHWYLQKPGQSPQLLIYKVSNRFSGVPDRFSGSGSGTDFTLKISRVEAEDVGVYYCSQNTHVPPTFGQGTKVEIERTVAAPSVFIFPPSDEQLKSGTASVVCLLNNFYPREAKVQWKVDNALQSGNSQESVTEQDSKDSTYSLSSTLTLSKADYEKHKVYACEVTHQGLSSPVTKSFNRGEC
